Laboratory results published in paper PMC5823874.
pKd: −log10 of the molar value.

Columns and labels:
[1] = target: Calcium-independent phospholipase A2β, short variant (SH-iPLA2β, 752 amino acids), wild type (Chinese hamster (gene cloned from CHO cells)); experiment: AUC; sedimentation velocity, 20 °C, 35,000 rpm, absorbance at 280 nm; 25 mM HEPES 7.5, 500 mM NaCl, 10% glycerol; c(s) model in SEDFIT
[2] = target: FAM-labeled calmodulin T34C (UniProt P0DP23); experiment: fluorescence polarisation; fluorescence anisotropy; 30 nM FAM-CaM with Ca2+, titrated with a twofold dilution series of iPLA2β; 25 mM HEPES 7.5, 150 mM NaCl, 10% glycerol; 15 min at 25 °C
[3] = target: Calcium-independent phospholipase A2β, short variant (SH-iPLA2β, 752 amino acids), wild type (Chinese hamster (gene cloned from CHO cells))

| Substance | stoichiometry N [1] | pKd [2] | Ki of inhibition of iPLA2β enzymatic activity by CaM in the presence of Ca2+ (fluorogenic assay with Pyrene-PC liposomes) [3] [µM] |
| --- | --- | --- | --- |
| Calcium-independent phospholipase A2β, short variant (SH-iPLA2β, 752 amino acids), wild type (enzyme) | 2 | 6.95 | – |
| Calmodulin (CaM), unmodified (from UniProt P0DP23 1-149) (natural protein) | – | – | 0.023 |
| iPLA2β W695E mutant (enzyme) | – | < 5.85 | – |
